Data on three compounds can be found in patent publication US20240050600A1, “Radiopharmaceuticals, uses thereof, and methods for the production thereof” (priority 2020, published 2024).

The data set is described as follows: in vivo. Set-up: species or system Balb/c nude mice. Conditions: male, Balb/c nude, mouse, iv, total radioactivity. From the text: Healthy male Balb/c nude mice (˜18 g) from 8 weeks old were obtained from the ARC and used for this study. Mice were imported into the CAI animal holding facility and monitored for 1 week prior to the study in order to acclimatise to the environment prior to injection of cells. All animals were provided with free access to food and water before and during the imaging experiments which were approved by the University of Queensland Animal Ethics Committee (Approval #AIBN/CAI/105/19/ARC/NHMRC).
8-week-old male Balb/c nude mice were injected (27 G needle) subcutaneously with PC3 ([…]) cells in 50 μL of 50:50 matrigel and cells in phosphate buffered saline into the right flank of each mouse. There was no evidence of ulceration at the time of dosing; the animals were closely monitored and remained in good condition apart from the growth of tumours. […] Labelled peptides were injected via the tail vein (29 G needle; ˜2-3 MBq) and then mice were imaged using the Siemens Inveon PET-CT instrument at the various timepoints.
The injection syringe was filled with the radioisotope solution (approximately 150 μL) and the activity in the syringe was measured using a dose calibrator (Capintec CRC-25) with a calibration factor of 35. The activity left in the syringe after the tail vein injection was measured using the same dose calibrator and the total volume injected in each mouse was calculated.
Organs were excised at 24 hours, with the percentage of injected dose of the administered compound determined by ex vivo gamma counting (Table 2). Values are averages across 4 mice.

The mark [1] stands for this setting: Percentage of injected dose in Blood.
Setting [2] is: Percentage of injected dose in GI Tract.
Where [3] appears, read: Percentage of injected dose in Heart.
The mark [4] stands for this setting: Percentage of injected dose in Kidneys.
Setting [5] is: Percentage of injected dose in Liver.
[6] abbreviates: Percentage of injected dose in Lungs.
[7] abbreviates: Percentage of injected dose in Pancreas.
[8] abbreviates: Percentage of injected dose in Spleen.
Where [9] appears, read: Percentage of injected dose in Tail.
[10] abbreviates: Percentage of injected dose in Tumour.

Molecules are shown by their SMILES.

In general, tissue uptake refers to the percentage of the injected dose found per gram of tissue. Turning to `CC(C)C[C@H](NC(=O)C[C@H](O)[C@H](CC(C)C)NC(=O)[C@H](Cc1c[nH]cn1)NC(=O)CNC(=O)[C@@H](NC(=O)[C@H](C)NC(=O)[C@H](Cc1c[nH]c2ccccc12)NC(=O)[C@H](CCC(N)=O)NC(=O)[C@@H](Cc1ccccc1)NC(=O)CCOCCOCCOCCOCCNC(=O)CCCC(=O)NC12CNCCNCC(N)(CNCCNC1)CNCCNC2)C(C)C)C(N)=O` [Sar(BBN)], the tissue uptake at 24 h reads like this: under setting [1], 0.13 ± 0.04 %ID/g; under setting [2], 0.3 ± 0.07 %ID/g; under setting [3], 0.24 ± 0.02 %ID/g; under setting [4], 3.55 ± 0.79 %ID/g; under setting [5], 1.52 ± 0.18 %ID/g; under setting [6], 0.31 ± 0.08 %ID/g. The tissue uptake at 24 h under setting [7] stood at 0.23 ± 0.02 %ID/g, the tissue uptake at 24 h under setting [8] worked out at 0.38 ± 0.06 %ID/g, the tissue uptake at 24 h under setting [9] was 0.56 ± 0.87 %ID/g and the tissue uptake at 24 h under setting [10] was 4.09 ± 0.52 %ID/g.
For `CC(C)CC(NC(=O)CC(O)C(CC(C)C)NC(=O)C(Cc1c[nH]cn1)NC(=O)CNC(=O)C(NC(=O)C(C)NC(=O)C(Cc1c[nH]c2ccccc12)NC(=O)C(CCC(N)=O)NC(=O)C(Cc1ccccc1)NC(=O)CCOCCOCCOCCOCCNC(=O)CCCC(=O)NC12CNCCNCC(NC(=O)CCCC(=O)NCCOCCOCCOCCOCCC(=O)NC(Cc3ccccc3)C(=O)NC(CCC(N)=O)C(=O)NC(Cc3c[nH]c4ccccc34)C(=O)NC(C)C(=O)NC(C(=O)NCC(=O)NC(Cc3c[nH]cn3)C(=O)NC(CC(C)C)C(O)CC(=O)NC(CC(C)C)C(N)=O)C(C)C)(CNCCNC1)CNCCNC2)C(C)C)C(N)=O` (stereo not drawn) [Sar(BBN)2], the tissue uptake at 24 h reads like this: under setting [1], 0.1 ± 0.05 %ID/g; under setting [2], 0.44 ± 0.04 %ID/g; under setting [3], 0.21 ± 0.03 %ID/g; under setting [4], 6.81 ± 0.67 %ID/g; under setting [5], 16.8 ± 1.55 %ID/g; under setting [6], 0.36 ± 0.12 %ID/g. In addition, the tissue uptake at 24 h amounted to 0.84 ± 0.06 %ID/g under setting [7], 1.47 ± 0.2 %ID/g under setting [8], 0.28 ± 0.05 %ID/g under setting [9] and 2.13 ± 0.86 %ID/g under setting [10].
`CC(C)C[C@H](NC(=O)C[C@H](O)[C@H](CC(C)C)NC(=O)[C@H](Cc1c[nH]cn1)NC(=O)CNC(=O)[C@@H](NC(=O)[C@H](C)NC(=O)[C@H](Cc1c[nH]c2ccccc12)NC(=O)[C@H](CCC(N)=O)NC(=O)[C@@H](Cc1ccccc1)NC(=O)CCOCCOCCOCCOCCNC(=O)CCCC(=O)NC12CNCCNCC(NC(=O)CCCC(=O)NC(CCCCNC(=O)CCCc3ccc(I)cc3)C(=O)O)(CNCCNC1)CNCCNC2)C(C)C)C(N)=O` (stereo partly drawn) [Sar(ABG)(BBN)]: the tissue uptake at 24 h under setting [1] was 7.22 ± 0.79 %ID/g; the tissue uptake at 24 h under setting [2] was determined as 1.93 ± 0.46 %ID/g; the tissue uptake at 24 h under setting [3] is 3.1 ± 0.53 %ID/g; the tissue uptake at 24 h under setting [4] came to 4.29 ± 0.54 %ID/g; the tissue uptake at 24 h under setting [5] amounted to 2.96 ± 0.3 %ID/g; the tissue uptake at 24 h under setting [6] was found to be 4.85 ± 0.93 %ID/g. In addition, the tissue uptake at 24 h by setting is: under setting [7], 6 ± 1.17 %ID/g; under setting [8], 2.68 ± 0.33 %ID/g; under setting [9], 2.06 ± 0.3 %ID/g; under setting [10], 22.3 ± 11 %ID/g.
